Reference: patent US20230038638A1, “COMPLEMENT FACTOR I-RELATED COMPOSITIONS AND METHODS” (published 2023)

Key:
[1] = target: T1, human C4b (human) (UniProt P0C0L5)
T1 sequence: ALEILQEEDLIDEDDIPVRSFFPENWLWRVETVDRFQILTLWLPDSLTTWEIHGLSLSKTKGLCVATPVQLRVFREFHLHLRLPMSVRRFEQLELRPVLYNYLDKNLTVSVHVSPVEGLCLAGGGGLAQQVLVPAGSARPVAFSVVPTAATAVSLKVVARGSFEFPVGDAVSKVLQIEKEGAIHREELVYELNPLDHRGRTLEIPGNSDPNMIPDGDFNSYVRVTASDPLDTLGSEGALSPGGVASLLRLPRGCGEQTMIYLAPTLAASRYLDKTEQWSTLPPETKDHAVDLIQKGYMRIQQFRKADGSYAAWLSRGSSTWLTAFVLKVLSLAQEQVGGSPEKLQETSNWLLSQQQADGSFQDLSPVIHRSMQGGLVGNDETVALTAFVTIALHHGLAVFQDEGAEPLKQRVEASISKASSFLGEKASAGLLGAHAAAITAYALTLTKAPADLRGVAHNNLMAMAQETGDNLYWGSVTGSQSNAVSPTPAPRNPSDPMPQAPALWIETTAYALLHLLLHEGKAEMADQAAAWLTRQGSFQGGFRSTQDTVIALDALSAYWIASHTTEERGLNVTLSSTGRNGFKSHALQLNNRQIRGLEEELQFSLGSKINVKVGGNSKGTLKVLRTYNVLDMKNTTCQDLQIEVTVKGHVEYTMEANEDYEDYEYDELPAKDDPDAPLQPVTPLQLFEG

[2] = target: soluble human C3b (human) (UniProt P01024)

| C4b Screen Ref Fold (fold vs CFI-HSA wild type) [1] | iC3b Screen Ref Fold (fold vs CFI-HSA wild type) [2] | C4b Screen Ref Fold (fold of CFI-HSA wild type) [1] | iC3b Screen Ref Fold (fold of CFI-HSA wild type) [2] | Substance | further results |
| --- | --- | --- | --- | --- | --- |
| 0.24 | 1.93 |  |  | CFI-HSA variant N52Q; N85Q; N159Q (enzyme) |  |
|  |  | 1.16 | 0.32 | CFI-HSA variant Y553H; F559L (enzyme) |  |
| 0.06 | 0.03 |  |  | CFI-HSA variant Δ(K1-P305); 1317D-R318D-R319D-K320D-R321K (enzyme) |  |
|  |  | 3.88 | 1.63 | CFI-HSA variant D425R; Y408L; N531G; E457G; E461Q; R462K; F464Y; E416A (enzyme) |  |
|  |  | 2.54 | 2.07 | CFI-HSA variant Y408L; N531G; E416A (enzyme) |  |
| 0.06 | 0 |  |  | CFI-HSA variant D506V (enzyme) |  |
| 0.08 | 0.42 |  |  | CFI-HSA D549Y (enzyme) |  |
| 0.37 | 0.57 |  |  | CFI-HSA variant H370A (enzyme) |  |
| 1.02 | 1.61 |  |  | CFI-HSA variant P535K (enzyme) |  |
|  |  | 0.12 | 0.02 | CFI-HSA variant S507A; GGSSGG (SEQ ID NO: 6); CR1(ccp1-3) (from UniProt P17927) (enzyme) |  |
| 0.39 | 1.01 |  |  | CFI-HSA R365K (enzyme) |  |
| 0.23 | 0.45 |  |  | CFI-HSA D549M (enzyme) |  |
| 1.85 | 0.49 |  |  | CFI-HSA variant M220A-K221Q (enzyme) |  |
|  |  | 0.73 | 0.42 | CFI-HSA variant S552G; F559L; V565I (enzyme) |  |
| 2.87 | 0.01 |  |  | CFI-HSA E457G; N531G; E461Q; R462K; F464Y; E530Y; GGSSGG (SEQ ID NO: 6); CR1(ccp15-17) (from UniProt P17927) (enzyme) |  |
| 0.84 | 0.64 |  |  | CFI-HSA variant A361G (enzyme) |  |

| C4b Screen Ref Fold (fold vs CFI-HSA wild type) [1] | iC3b Screen Ref Fold (fold vs CFI-HSA wild type) [2] | C4b Screen Ref Fold (fold of CFI-HSA wild type) [1] | iC3b Screen Ref Fold (fold of CFI-HSA wild type) [2] | Substance | further results |
| --- | --- | --- | --- | --- | --- |
| 0.06 | 0.09 |  |  | CFI-HSA A502G (enzyme) |  |
|  |  | 1.23 | 0.76 | CFI-HSA variant Y553H; F559L; V565I (enzyme) |  |
| 0.76 | 0.93 |  |  | CFI-HSA Y553S (enzyme) |  |
| 1.63 | 0.6 |  |  | fH_CCP1-4; GGSS(13); wt hCFI (enzyme) |  |
|  |  | 0.17 | 1.03 | CFI-HSA variant Y408L; P535G; N422K (enzyme) |  |
| 0.6 | 0.63 |  |  | CFI-HSA Y553N (enzyme) |  |
| 0.01 | 0.05 |  |  | CFI-HSA variant V323A (enzyme) |  |
| 1.06 | 1.74 |  |  | CFI-HSA A405G (enzyme) |  |
| 0.27 | 1.15 |  |  | CFI-HSA K424D (enzyme) |  |
|  |  | 1.08 | 0.7 | CFI-HSA variant Y408L; E457G; P535G; P558S (enzyme) |  |
| 0.13 | 0.43 |  |  | CFI-HSA R365M (enzyme) |  |
|  |  | 2.85 | 1.96 | CFI-HSA variant N531G; P535G; N422K (enzyme) |  |
| 0.57 | 0.76 |  |  | CFI-HSA variant E536A (enzyme) |  |
| 0.02 | 0 |  |  | CFI-HSA variant D506A (enzyme) |  |
|  |  | 2.33 | 0.18 | CFI-HSA variant S552G; Y553H; F559L; P558S (enzyme) |  |
|  |  | 0.6 | 0.5 | CFI-HSA variant Y553F; P558S; F559L (enzyme) |  |

More lines, now with the values behind:

| Substance | C4b Screen Ref Fold (fold vs CFI-HSA wild type) [1] | iC3b Screen Ref Fold (fold vs CFI-HSA wild type) [2] | C4b Screen Ref Fold (fold of CFI-HSA wild type) [1] | iC3b Screen Ref Fold (fold of CFI-HSA wild type) [2] | further results |
| --- | --- | --- | --- | --- | --- |
| CFI-HSA E457G; E461Q; N531G; GGSSGG (SEQ ID NO: 6); CR1 (ccp15-17) (from UniProt P17927) (enzyme) | 4.82 | 0.12 |  |  |  |
| CFI-HSA variant Y408L; E457G; N531G; P535G; WT; GGSSGG (SEQ ID NO: 6); CR1(ccp15-17) (from UniProt P17927) (enzyme) |  |  | 3.14 | 0.05 |  |
| CFI-HSA variant Y553F (enzyme) |  |  | 1.37 | 0.67 |  |
| CFI-HSA K424F (enzyme) | 0.35 | 1.04 |  |  |  |
| CFI-HSA N531G; P535A; R557K (enzyme) | 4.13 | 1.65 |  |  |  |
| fH_CCP1-4; GGGGSS(9); wt hCFI (enzyme) | 0.97 | 0.66 |  |  |  |
| CFI-HSA Y408L; E457G; E530Y (enzyme) | 2 | 1.12 |  |  |  |
| CFI-HSA variant S552G; F559L; V565I; P558S (enzyme) |  |  | 1.8 | 0.49 |  |
| CFI-HSA variant P535G; WT; GGSSGG (SEQ ID NO: 6); CR1(ccp15-17) (from UniProt P17927) (enzyme) |  |  | 2.73 | 0 |  |
| CFI-HSA variant Y408L; N531G; P535G; K534Q (enzyme) |  |  | 1.47 | 1.2 |  |
| CFI-HSA variant Δ(V565) (enzyme) |  |  |  |  | C4b Screen Ref Fold (fold relative to CFI-HSA wild type) [1]: 1.57; iC3b Screen Ref Fold (fold relative to CFI-HSA wild type) [2]: 0.54 |
| CFI-HSA P538G (enzyme) | 0.07 | -0.01 |  |  |  |
| CFI-HSA Y553E (enzyme) | 0.51 | 0.38 |  |  |  |
| CFI-HSA N531G; P535A; ΔC-term (Δ558-PFISQYNV (SEQ ID NO: 14)-565) (enzyme) | 0.96 | 0.24 |  |  |  |
| CFI-HSA variant F559L; V565I (enzyme) |  |  | 0.77 | 1.59 |  |
| CFI-HSA H370G (enzyme) | 0.13 | 0.52 |  |  |  |
| CFI-HSA variant Y408L; E457G; WT; GGSSGG (SEQ ID NO: 6); CR1(ccp15-17) (from UniProt P17927) (enzyme) |  |  | 3.18 | 0.12 |  |
| fH_CCP1-4; GGGGSS(7); wt hCFI (enzyme) | 1.21 | 0.77 |  |  |  |
| CFI-HSA variant Y403F; G406A; D425K; E457G; E461Q; K504Y; N531G (enzyme) |  |  |  |  | C4b Screen Ref Fold (fold relative to CFI-HSA wild type) [1]: 3.16; iC3b Screen Ref Fold (fold relative to CFI-HSA wild type) [2]: 0.02 |
| CFI-HSA variant Y20F; D425R (enzyme) | 0.42 | 1.01 |  |  |  |
| CFI-HSA R557V (enzyme) | 2.23 | 0.21 |  |  |  |
| CFI-HSA K424W (enzyme) | 0.25 | 1.52 |  |  |  |
| CFI-HSA variant Y408L; P535G; K534Q (enzyme) |  |  | 0.33 | 0.26 |  |
| CFI-HSA variant Y408L; WT; GGSSGG (SEQ ID NO: 6); CR1(ccp15-17) (from UniProt P17927) (enzyme) |  |  | 3.64 | 0.03 |  |
| CFI-HSA R557W (enzyme) | 2.36 | 0.12 |  |  |  |
| CFI-HSA variant Y408L; N531G; P535G (enzyme) |  |  | 0.89 | 0.97 |  |
| CFI-HSA Y408L; E457G; N531G; E530Y (enzyme) | 4.16 | 2.07 |  |  |  |
| CFI-HSA R557M (enzyme) | 2.48 | 0.16 |  |  |  |
| CFI-HSA L76G (enzyme) | 0.07 | 0.5 |  |  |  |
